According to PMC9930725 (Nature, 2022):

Assays:
SEC = target: the molecule itself; test: SEC
thermal reversion rate = target: the molecule itself; test: thermal reversion rate

| Protein | binding result (SEC) | also measured |
| --- | --- | --- |
| Arabidopsis thaliana phytochrome B, full length (natural protein, UniProt P14713 1-1172, looked up, phytochromobilin (PΦB) covalently linked to Cys357) MVSGVGGSGGGRGGGRGGEEEPSSSHTPNNRRGGEQAQSSGTKSLRPRSNTESMSKAIQQYTVDARLHAVFEQSGESGKSFDYSQSLKTTTYGSSVPEQQITAYLSRIQRGGYIQPFGCMIAVDESSFRIIGYSENAREMLGIMPQSVPTLEKPEILAMGTDVRSLFTSSSSILLERAFVAREITLLNPVWIHSKNTGKPFYAILHRIDVGVVIDLEPARTEDPALSIAGAVQSQKLAVRAISQLQALPGGDIKLLCDTVVESVRDLTGYDRVMVYKFHEDEHGEVVAESKRDDLEPYIGLHYPATDIPQASRFLFKQNRVRMIVDCNATPVLVVQDDRLTQSMCLVGSTLRAPHGCHSQYMANMGSIASLAMAVIINGNEDDGSNVASGRSSMRLWGLVVCHHTSSRCIPFPLRYACEFLMQAFGLQLNMELQLALQMSEKRVLRTQTLLCDMLLRDSPAGIVTQSPSIMDLVKCDGAAFLYHGKYYPLGVAPSEVQIKDVVEWLLANHADSTGLSTDSLGDAGYPGAAALGDAVCGMAVAYITKRDFLFWFRSHTAKEIKWGGAKHHPEDKDDGQRMHPRSSFQAFLEVVKSRSQPWETAEMDAIHSLQLILRDSFKESEAAMNSKVVDGVVQPCRDMAGEQGIDELGAVAREMVRLIETATVPIFAVDAGGCINGWNAKIAELTGLSVEEAMGKSLVSDLIYKENEATVNKLLSRALRGDEEKNVEVKLKTFSPELQGKAVFVVVNACSSKDYLNNIVGVCFVGQDVTSQKIVMDKFINIQGDYKAIVHSPNPLIPPIFAADENTCCLEWNMAMEKLTGWSRSEVIGKMIVGEVFGSCCMLKGPDALTKFMIVLHNAIGGQDTDKFPFPFFDRNGKFVQALLTANKRVSLEGKVIGAFCFLQIPSPELQQALAVQRRQDTECFTKAKELAYICQVIKNPLSGMRFANSLLEATDLNEDQKQLLETSVSCEKQISRIVGDMDLESIEDGSFVLKREEFFLGSVINAIVSQAMFLLRDRGLQLIRDIPEEIKSIEVFGDQIRIQQLLAEFLLSIIRYAPSQEWVEIHLSQLSKQMADGFAAIRTEFRMACPGEGLPPELVRDMFHSSRWTSPEGLGLSVCRKILKLMNGEVQYIRESERSYFLIILELPVPRKRPLSTASGSGDMMLMMPY | – | stoichiometry N (SEC): 2 |
| PhyB N982 fragment (domain or fragment, Arabidopsis thaliana, UniProt P14713 1-982, looked up, phytochromobilin (PΦB) bound) MVSGVGGSGGGRGGGRGGEEEPSSSHTPNNRRGGEQAQSSGTKSLRPRSNTESMSKAIQQYTVDARLHAVFEQSGESGKSFDYSQSLKTTTYGSSVPEQQITAYLSRIQRGGYIQPFGCMIAVDESSFRIIGYSENAREMLGIMPQSVPTLEKPEILAMGTDVRSLFTSSSSILLERAFVAREITLLNPVWIHSKNTGKPFYAILHRIDVGVVIDLEPARTEDPALSIAGAVQSQKLAVRAISQLQALPGGDIKLLCDTVVESVRDLTGYDRVMVYKFHEDEHGEVVAESKRDDLEPYIGLHYPATDIPQASRFLFKQNRVRMIVDCNATPVLVVQDDRLTQSMCLVGSTLRAPHGCHSQYMANMGSIASLAMAVIINGNEDDGSNVASGRSSMRLWGLVVCHHTSSRCIPFPLRYACEFLMQAFGLQLNMELQLALQMSEKRVLRTQTLLCDMLLRDSPAGIVTQSPSIMDLVKCDGAAFLYHGKYYPLGVAPSEVQIKDVVEWLLANHADSTGLSTDSLGDAGYPGAAALGDAVCGMAVAYITKRDFLFWFRSHTAKEIKWGGAKHHPEDKDDGQRMHPRSSFQAFLEVVKSRSQPWETAEMDAIHSLQLILRDSFKESEAAMNSKVVDGVVQPCRDMAGEQGIDELGAVAREMVRLIETATVPIFAVDAGGCINGWNAKIAELTGLSVEEAMGKSLVSDLIYKENEATVNKLLSRALRGDEEKNVEVKLKTFSPELQGKAVFVVVNACSSKDYLNNIVGVCFVGQDVTSQKIVMDKFINIQGDYKAIVHSPNPLIPPIFAADENTCCLEWNMAMEKLTGWSRSEVIGKMIVGEVFGSCCMLKGPDALTKFMIVLHNAIGGQDTDKFPFPFFDRNGKFVQALLTANKRVSLEGKVIGAFCFLQIPSPELQQALAVQRRQDTECFTKAKELAYICQVIKNPLSGMRFANSLLEATDLNEDQKQLLETSVSCEKQISRIVGD | binds | – |
| PhyB N908 fragment (domain or fragment, Arabidopsis thaliana, UniProt P14713 1-908, looked up, phytochromobilin (PΦB) bound) MVSGVGGSGGGRGGGRGGEEEPSSSHTPNNRRGGEQAQSSGTKSLRPRSNTESMSKAIQQYTVDARLHAVFEQSGESGKSFDYSQSLKTTTYGSSVPEQQITAYLSRIQRGGYIQPFGCMIAVDESSFRIIGYSENAREMLGIMPQSVPTLEKPEILAMGTDVRSLFTSSSSILLERAFVAREITLLNPVWIHSKNTGKPFYAILHRIDVGVVIDLEPARTEDPALSIAGAVQSQKLAVRAISQLQALPGGDIKLLCDTVVESVRDLTGYDRVMVYKFHEDEHGEVVAESKRDDLEPYIGLHYPATDIPQASRFLFKQNRVRMIVDCNATPVLVVQDDRLTQSMCLVGSTLRAPHGCHSQYMANMGSIASLAMAVIINGNEDDGSNVASGRSSMRLWGLVVCHHTSSRCIPFPLRYACEFLMQAFGLQLNMELQLALQMSEKRVLRTQTLLCDMLLRDSPAGIVTQSPSIMDLVKCDGAAFLYHGKYYPLGVAPSEVQIKDVVEWLLANHADSTGLSTDSLGDAGYPGAAALGDAVCGMAVAYITKRDFLFWFRSHTAKEIKWGGAKHHPEDKDDGQRMHPRSSFQAFLEVVKSRSQPWETAEMDAIHSLQLILRDSFKESEAAMNSKVVDGVVQPCRDMAGEQGIDELGAVAREMVRLIETATVPIFAVDAGGCINGWNAKIAELTGLSVEEAMGKSLVSDLIYKENEATVNKLLSRALRGDEEKNVEVKLKTFSPELQGKAVFVVVNACSSKDYLNNIVGVCFVGQDVTSQKIVMDKFINIQGDYKAIVHSPNPLIPPIFAADENTCCLEWNMAMEKLTGWSRSEVIGKMIVGEVFGSCCMLKGPDALTKFMIVLHNAIGGQDTDKFPFPFFDRNGKFVQALLTANKRVSLEGKVIGAFCFLQIPS | – | Kd (thermal reversion rate): ~26 nM |
| PhyB N908(L427A) (domain or fragment, Arabidopsis thaliana, UniProt P14713 1-908, looked up, phytochromobilin (PΦB) bound) MVSGVGGSGGGRGGGRGGEEEPSSSHTPNNRRGGEQAQSSGTKSLRPRSNTESMSKAIQQYTVDARLHAVFEQSGESGKSFDYSQSLKTTTYGSSVPEQQITAYLSRIQRGGYIQPFGCMIAVDESSFRIIGYSENAREMLGIMPQSVPTLEKPEILAMGTDVRSLFTSSSSILLERAFVAREITLLNPVWIHSKNTGKPFYAILHRIDVGVVIDLEPARTEDPALSIAGAVQSQKLAVRAISQLQALPGGDIKLLCDTVVESVRDLTGYDRVMVYKFHEDEHGEVVAESKRDDLEPYIGLHYPATDIPQASRFLFKQNRVRMIVDCNATPVLVVQDDRLTQSMCLVGSTLRAPHGCHSQYMANMGSIASLAMAVIINGNEDDGSNVASGRSSMRLWGLVVCHHTSSRCIPFPLRYACEFLMQAFGAQLNMELQLALQMSEKRVLRTQTLLCDMLLRDSPAGIVTQSPSIMDLVKCDGAAFLYHGKYYPLGVAPSEVQIKDVVEWLLANHADSTGLSTDSLGDAGYPGAAALGDAVCGMAVAYITKRDFLFWFRSHTAKEIKWGGAKHHPEDKDDGQRMHPRSSFQAFLEVVKSRSQPWETAEMDAIHSLQLILRDSFKESEAAMNSKVVDGVVQPCRDMAGEQGIDELGAVAREMVRLIETATVPIFAVDAGGCINGWNAKIAELTGLSVEEAMGKSLVSDLIYKENEATVNKLLSRALRGDEEKNVEVKLKTFSPELQGKAVFVVVNACSSKDYLNNIVGVCFVGQDVTSQKIVMDKFINIQGDYKAIVHSPNPLIPPIFAADENTCCLEWNMAMEKLTGWSRSEVIGKMIVGEVFGSCCMLKGPDALTKFMIVLHNAIGGQDTDKFPFPFFDRNGKFVQALLTANKRVSLEGKVIGAFCFLQIPS | binds | – |
